Ends that are not written are not given here.
B1: BMP4: bone morphogenic protein 4, cytokine (protein, UniProt P12644 293-408, looked up)
Bone morphogenetic protein 4: SPKHHSQRARKKNKNCRRHSLYVDFSDVGWNDWIVAPPGYQAFYCHGDCPFPLADHLNSTNHAIVQTLVNSVNSSIPKACCVPTELSAISMLYLDEYDKVVLKNYQEMVVEGCGCR
B2: FGF-8: fibroblast growth factor 8, cytokine (protein, UniProt P55075 23-233, looked up)
Fibroblast growth factor 8: QEGPGRGPALGRELASLFRAGREPQGVSQQHVREQSLVTDQLSRRLIRTYQLYSRTSGKHVQVLANKRINAMAEDGDPFAKLIVETDTFGSRVRVRGAETGLYICMNKKGKLIAKSNGKGKDCVFTEIVLENNYTALQNAKYEGWYMAFTRKGRPRKGSKTRQHQREVHFMKRLPRGHHTTEQSLRFEFLNYPPFTRSLRGSQRTWAPEPR
B3: midkine: cytokine, amino acid sequence SEQ ID NO:68 (protein, listed as Homo sapiens)
chain: MQHRGFLLLTLLALLALTSAVAKKKDKVKKGGPGSECAEWAWGPCTPSSKDCGVGFREGTCGAQTQRIRCRVPCNWKKEFGADCKYKFENWGACDGGTGTKVRQGTLKKARYNAQCQETIRVTKPCTPKTKAKAKAKKGKGKD
modifications: CDS (1)..(432)

What was measured:
[1] = test system: mouse bone marrow-derived pluripotent stem cells (BMSC); experiment: Quantitative PCR of genes expressed in myotubes from BMSC; assay type: cell-based; settings: with 5-aza-C 3 μM, cytokine 10 ng/ml
Method: (§1) RNAs were collected from the myotubes thus obtained. And genes expressed in the myotubes were analyzed with quantitative PCR analysis using the synthetic oligonucleotides represented by SEQ ID NOS:71 to 78. As a result, PDGF or retinoic acid promoted the expression of MyoD and fTnI genes relating to a skeletal muscle but not cTnI or ANP specifically relating to a myocardium. Next, mouse bone marrow-derived pluripotent stem cells (BMSC) having the potential to differentiate into cardiomyocytes were inoculated in a 60-mm culture dish at a density of 2×10^4 cells/ml and cultured using an incubator at 33° C. under 5% of CO2.
RNAs were collected from the myotubes thus obtained. And genes expressed in the myotubes were analyzed with quantitative PCR using the synthetic oligonucleotides represented by SEQ ID NOS:71 to 78. As a result, the FGF-8, ET-1, midkine and BMP4 each individually promoted the expression of cTnI and ANP gene which are myocardium-specific genes.

[2] = test system: mouse bone marrow-derived pluripotent stem cells (BMSC); experiment: Differentiation of BMSC into myotubes, phase-contrast microscope; assay type: cell-based; settings: 5-aza-C 3 μM in all dishes, cytokine 10 ng/ml, four weeks after addition of 5-aza-C
Method: The mouse bone marrow-derived pluripotent stem cells (BMSC) having the potential to differentiate into cardiomyocytes were plated into 60-mm culture dishes and 60 mm fibronectin-coated dishes (Becton Dickinson) at a density of 2×10^4 cells/ml and cultured at 33° C. in a 5% CO2-incubator.
On the next day, 5-aza-C was added to each culture medium in a final concentration of 3 μM, followed by culturing with the following 3 different treatments, with addition of PDGF (culture dish A), both PDGF and retinoic acid (culture dish B) or without addition of any compound (culture dish C) (final concentration: PDGF, 10 ng/ml; retinoic acid, 10^−9 M).
On the next day, the medium was replaced with a fresh medium to remove 5-aza-C therefrom. Then, PDGF was added to the culture dish A until the final concentration of PDGF came to be 10 ng/ml, while PDGF and retinoic acid were added to the culture dish B until the final concentrations of PDGF and retinoic acid came to be 10 ng/ml and 10^−9 M, respectively. Two and four days thereafter, the medium was replaced and the PDGF or retinoic acid was further added.
As a result, about 30% of the cells in the culture dish containing 5-aza-C alone differentiated into myotubes, while about 40% of the cells in the culture dish containing PDGF and about 50% of the cells in the culture dish containing PDGF together with retinoic acid differentiated into myotubes. In the three groups of the fibronectin-coated dishes, the ratio of the cells differentiated into myotubes was about 10% higher than in the three groups of the culture dishes.
as §1
On the next day, 5-aza-C was added to the liquid culture medium to give a final concentration of 3 μM. Furthermore, five treatments differing from each other were performed by adding FGF-8 to give a final concentration of 10 ng/ml (culture dish D); adding ET-1 to give a final concentration of 10 ng/ml (culture dish E); adding a midkine to give a final concentration of 10 ng/ml (Culture dish F); adding BMP4 to give a final concentration of 10 ng/ml (culture dish G); and adding no compound (culture dish H), followed by culturing.
On the next day, the medium was replaced by a fresh medium to eliminate 5-aza-C therefrom. Then, FGF-8 was added to the culture dish D to give a final concentration of 10 ng/ml; ET-1 was added to the culture dish E to give a final concentration of 10 ng/ml; the midkine was added to the culture dish F to give a final concentration of 10 ng/ml; and BMP4 was added to the culture dish G to give a final concentration of 10 ng/ml, followed by culturing. Two and four days thereafter, the medium was replaced and the FGF-8, ET-1, midkine or BMP4 was further added.
As a result, about 30% of the cells in the culture dish containing 5-aza-C alone differentiated into myotubes, while about 50% of the cells in the culture dishes containing FGF-8, ET-1, midkine or BMP4 differentiated into myotubes respectively.

Row | Molecule | expression of cTnI and ANP gene (myocardium-specific genes) [1] | cells differentiated into myotubes [2]
1 | ET-1: endothelin 1, cytokine (CSCSSLMDKECVYFCHLDIIW; ends and bridges not checked; cysteine pairing not given here; UniProt P05305 53-73, looked up) | promoted | about 50%
2 | B1 | promoted | about 50%
3 | B2 | promoted | about 50%
4 | B3 | promoted | about 50%

— patent publication US20020142457A1, “Cell having the potentiality of differentiation into cardiomyocytes” (priority 1999, published 2002)
